Assay results published in publication PMC8049743, “Discovery and characterization of a novel family of prokaryotic nanocompartments involved in sulfur metabolism” (eLife, 2021).

Experiments:
[1] = target: T1, ΔNTD-CyD (unencapsulated) (Synechococcus elongatus, UniProt Q8KUU5); assay: coupled alanine dehydrogenase assay, NADH fluorescence; type: biochemical; conditions: 25 mM Tris-HCl pH 8, 150 mM NaCl, 5 mM NAD+, 25 °C, 200 nM enzyme
T1 construct: N-terminal His-SUMO tag cut off; E. coli; 45 kDa
T1 sequence (Q8KUU5 226-626 limits assumed): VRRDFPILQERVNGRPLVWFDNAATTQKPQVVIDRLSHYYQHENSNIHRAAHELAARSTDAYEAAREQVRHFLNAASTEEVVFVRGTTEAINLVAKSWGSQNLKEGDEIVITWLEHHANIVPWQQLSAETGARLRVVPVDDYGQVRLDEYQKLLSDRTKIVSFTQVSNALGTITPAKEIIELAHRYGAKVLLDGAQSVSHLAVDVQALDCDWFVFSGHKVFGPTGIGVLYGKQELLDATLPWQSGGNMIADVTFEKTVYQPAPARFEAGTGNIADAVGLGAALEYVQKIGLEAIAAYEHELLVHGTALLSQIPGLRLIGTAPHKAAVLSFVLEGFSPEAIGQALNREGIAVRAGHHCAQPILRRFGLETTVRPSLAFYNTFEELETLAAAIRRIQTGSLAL

[2] = target: T2, encapsulated CyD (CyD-loaded SrpI encapsulin) (Synechococcus elongatus, UniProt Q8KUU5); assay: as above; type: biochemical; conditions: 25 mM Tris-HCl pH 8, 150 mM NaCl, 5 mM NAD+, 25 °C, 200 nM enzyme; CyD encapsulated in SrpI shell
T2 construct: E. coli; 1-2 CyD copies seen in difference map; with Type 2A encapsulin shell protein SrpI
T2 sequence (Q8KUU5 1-626): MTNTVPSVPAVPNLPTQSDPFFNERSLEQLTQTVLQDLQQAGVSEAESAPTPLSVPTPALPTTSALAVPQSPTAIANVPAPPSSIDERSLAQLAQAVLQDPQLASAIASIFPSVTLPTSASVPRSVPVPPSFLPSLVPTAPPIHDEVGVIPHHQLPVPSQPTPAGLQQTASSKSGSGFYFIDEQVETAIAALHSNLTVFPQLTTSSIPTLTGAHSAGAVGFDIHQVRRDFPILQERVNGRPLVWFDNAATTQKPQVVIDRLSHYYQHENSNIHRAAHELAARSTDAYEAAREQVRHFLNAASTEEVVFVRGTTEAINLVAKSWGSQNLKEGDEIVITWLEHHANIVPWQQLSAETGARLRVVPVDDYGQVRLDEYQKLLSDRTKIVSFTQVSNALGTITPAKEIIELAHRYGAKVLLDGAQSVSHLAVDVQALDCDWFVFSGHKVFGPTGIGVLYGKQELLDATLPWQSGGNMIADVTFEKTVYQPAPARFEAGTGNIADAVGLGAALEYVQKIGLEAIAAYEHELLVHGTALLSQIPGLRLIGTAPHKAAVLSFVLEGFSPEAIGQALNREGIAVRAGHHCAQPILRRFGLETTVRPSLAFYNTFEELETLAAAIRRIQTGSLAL
T2 sequence (Q55032 1-306 partner): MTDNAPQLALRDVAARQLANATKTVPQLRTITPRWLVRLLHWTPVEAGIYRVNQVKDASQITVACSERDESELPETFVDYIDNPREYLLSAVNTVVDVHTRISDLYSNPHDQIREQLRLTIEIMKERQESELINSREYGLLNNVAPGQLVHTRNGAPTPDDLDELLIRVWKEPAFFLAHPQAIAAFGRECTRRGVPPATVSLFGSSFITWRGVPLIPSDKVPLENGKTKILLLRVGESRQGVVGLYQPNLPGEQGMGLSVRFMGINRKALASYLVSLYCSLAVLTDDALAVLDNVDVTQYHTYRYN

[3] = target: T3, CyD (cysteine desulfurase, unencapsulated) (Synechococcus elongatus, UniProt Q8KUU5); assay: as above; type: biochemical; conditions: 25 mM Tris-HCl pH 8, 150 mM NaCl, 5 mM NAD+, 25 °C, 200 nM enzyme
T3 construct: full length incl; 225-residue N-terminal domain; N-terminal His-SUMO tag cut off; E. coli BL21(DE3) LOBSTR; 68 kDa; PLP enzyme
T3 sequence (Q8KUU5 1-626): T2 sequence (Q8KUU5 1-626)

[4] = target: SrpI encapsulin shell protein with C-terminal 6X-His tag, from inclusion bodies, refolded (Synechococcus elongatus PCC 7942) (UniProt Q55032); assay: negative stain TEM; apo-SrpI and holo-SrpI (CyD loaded by refolding) at 300 nM in 50 mM CAPS pH 10, 250 mM arginine, 150 mM NaCl; uranyl formate; 3D reconstruction without symmetry, ~18 Å; difference map
[5] = target: the molecule itself; assay: non-denaturing SDS-PAGE; purified encapsulin, samples not heat-denatured compared with samples heated at 95°C for 15 min
[6] = target: T4, SrpI encapsulin shell protein with C-terminal 6X-His tag, from inclusion bodies, refolded (Synechococcus elongatus (strain ATCC …, UniProt Q55032)); assay: in vitro cargo loading (co-refolding), SEC co-elution and SDS-PAGE/sfGFP fluorescence; shell unfolded in GuHCl and refolded by dilution in the presence of cargo (encapsulation; CAPS pH 10, 250 mM arginine, glycerol, DTT); NTD fused to sfGFP
T4 chain: T2 sequence (Q55032 1-306 partner)

[7] = target: the molecule itself; assay: cryo-EM structure; purified holo-SrpI, 2 mg/mL in 50 mM CAPS pH 10, 250 mM arginine, 150 mM NaCl, 0.05% NP-40; 2.2 Å; symmetry expansion and focused classification for cargo density

Molecule: N[C@@H](CS)C(=O)O [L-cysteine]
- coupled alanine dehydrogenase assay, NADH fluorescence [1]: the N-terminal domain had no effect on catalytic activity
- coupled alanine dehydrogenase assay, NADH fluorescence [2]: the encapsulated CyD was roughly sevenfold more active than unencapsulated CyD
- coupled alanine dehydrogenase assay, NADH fluorescence [3]: Unencapsulated CyD was active towards a cysteine substrate

Molecule: Full-length cysteine desulfurase CyD (Synpcc7942_B2661), purified (enzyme)
- copies of CyD in the difference density of the loaded compartment [4]: 1 to 2 copies

B1: Thermotoga maritima Family 1 encapsulin shell protein (natural protein)
chain: MEFLKRSFAPLTEKQWQEIDNRAREIFKTQLYGRKFVDVEGPYGWEYAAHPLGEVEVLSDENEVVKWGLRKSLPLIELRATFTLDLWELDNLERGKPNVDLSSLEETVRKVAEFEDEVIFRGCEKSGVKGLLSFEERKIECGSTPKDLLEAIVRALSIFSKDGIEGPYTLVINTDRWINFLKEEAGHYPLEKRVEECLRGGKIITTPRIEDALVVSERGGDFKLILGQDLSIGYEDREKDAVRLFITETFTFQVVNPEALILLKF
notes: Family 1 encapsulin shell protein, Thermotoga maritima; also called Tm Enc; T. maritima encapsulin; source: purified
- binding result [5]: binds

B2: CyD N-terminal domain (residues 1–225) fused to sfGFP (protein)
chain: MTNTVPSVPAVPNLPTQSDPFFNERSLEQLTQTVLQDLQQAGVSEAESAPTPLSVPTPALPTTSALAVPQSPTAIANVPAPPSSIDERSLAQLAQAVLQDPQLASAIASIFPSVTLPTSASVPRSVPVPPSFLPSLVPTAPPIHDEVGVIPHHQLPVPSQPTPAGLQQTASSKSGSGFYFIDEQVETAIAALHSNLTVFPQLTTSSIPTLTGAHSAGAVGFDIHQ
- binding result [6]: binds

B3: SrpI encapsulin shell protein with C-terminal 6X-His tag, from inclusion bodies, refolded (natural protein, Synechococcus elongatus PCC 7942)
chain: T2 sequence (Q55032 1-306 partner)
notes: monomer 35 kDa; T = 1 icosahedral capsid of 60 subunits by cryo-EM; also called apo-SrpI; holo-SrpI (when loaded with CyD); copies: 60
- stoichiometry N [7]: 60 subunits
